Measured values taken from the supplement of paper PMC9112550, “Optimization of the antimicrobial peptide Bac7 by deep mutational scanning” (BMC Biology, 2022).

Tested on: Escherichia coli TOP10
Assay: shrunken log2 fold change of peptide-encoding DNA abundance (4.5 h post-induction vs induction); higher = less antimicrobial activity (less host growth inhibition)
Conditions: time post-induction: 4.5 h; library: site-saturation at positions 5, 18, 19, 20
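Further: peptides expressed intracellularly from a pBAD plasmid library in pooled LB shake-flask culture, induced with 0.3% L-arabinose, DNA abundance read by NGS, three biological replicates, DESeq2 with apeglm shrinkage.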

Row | Sequence | shrunken log2 fold change
1 | RRIRNRPPRLPRPRPRPPNFPRP | -0.0236
2 | RRIRRRPPRLPRPRPRPTEKPRP | 0.155
3 | RRIRERPPRLPRPRPRPYNYPRP | -0.519
4 | RRIRNRPPRLPRPRPRPFWFPRP | 0.195
5 | RRIRNRPPRLPRPRPRPHMTPRP | 0.0432
6 | RRIRIRPPRLPRPRPRPWWQPRP | 0.0732
7 | RRIRCRPPRLPRPRPRPNCMPRP | -0.369
8 | RRIRCRPPRLPRPRPRPWIGPRP | -0.775
9 | RRIRSRPPRLPRPRPRPIHMPRP | -0.397
10 | RRIRNRPPRLPRPRPRPLFEPRP | 0.205
11 | RRIRYRPPRLPRPRPRPDNWPRP | -0.38
12 | RRIRARPPRLPRPRPRPYGAPRP | -0.206
13 | RRIRNRPPRLPRPRPRPLGPPRP | 0.0324
14 | RRIRFRPPRLPRPRPRPLVGPRP | -0.0413
15 | RRIRERPPRLPRPRPRPIQRPRP | 0.146
16 | RRIRCRPPRLPRPRPRPIRGPRP | 0.0532
17 | RRIRSRPPRLPRPRPRPITQPRP | -0.0534
18 | RRIRHRPPRLPRPRPRPYNCPRP | -0.00726
19 | RRIRKRPPRLPRPRPRPDFFPRP | 0.0109
20 | RRIRERPPRLPRPRPRPSCLPRP | -0.484
21 | RRIRVRPPRLPRPRPRPPREPRP | 0.267
22 | RRIRTRPPRLPRPRPRPRFKPRP | 0.115
23 | RRIRIRPPRLPRPRPRPNVNPRP | -0.594
24 | RRIRSRPPRLPRPRPRPFAKPRP | -0.136
25 | RRIRKRPPRLPRPRPRPRRNPRP | 0.316

Row | Sequence | shrunken log2 fold change
26 | RRIRVRPPRLPRPRPRPMDFPRP | -0.205
27 | RRIRIRPPRLPRPRPRPTVNPRP | -0.608
28 | RRIRGRPPRLPRPRPRPEMTPRP | 3.26
29 | RRIRARPPRLPRPRPRPEMVPRP | 0.00546
30 | RRIRGRPPRLPRPRPRPRAEPRP | 1.01
31 | RRIRHRPPRLPRPRPRPGDWPRP | -0.133
32 | RRIRFRPPRLPRPRPRPQPNPRP | -0.0249
33 | RRIRDRPPRLPRPRPRPINYPRP | 0.0585
34 | RRIRIRPPRLPRPRPRPYGWPRP | -0.0644
35 | RRIRDRPPRLPRPRPRPISNPRP | -0.175
36 | RRIRLRPPRLPRPRPRPRAPPRP | 0.71
37 | RRIRRRPPRLPRPRPRPIILPRP | -0.406
38 | RRIRDRPPRLPRPRPRPGHKPRP | 0.00794
39 | RRIRDRPPRLPRPRPRPWPWPRP | -0.0837
40 | RRIRARPPRLPRPRPRPMDGPRP | 0.211
41 | RRIRGRPPRLPRPRPRPCIVPRP | 0.201
42 | RRIRCRPPRLPRPRPRPAVEPRP | -0.0939
43 | RRIRIRPPRLPRPRPRPNWDPRP | -0.0401
44 | RRIRMRPPRLPRPRPRPLRWPRP | 1.32
45 | RRIRVRPPRLPRPRPRPWYGPRP | -0.367
46 | RRIRNRPPRLPRPRPRPSVWPRP | 0.228
47 | RRIRRRPPRLPRPRPRPASIPRP | -0.0206
48 | RRIRNRPPRLPRPRPRPMQQPRP | -0.0561
49 | RRIRIRPPRLPRPRPRPPAMPRP | 1.68
50 | RRIRARPPRLPRPRPRPSSPPRP | 0.0282
